Experimental data: patent US20150355179

Columns and labels:
[1] = system: GST-CDKACTH1 labelled with Cy3 (CDKACTH1-Cy3)
[2] = system: CDKACT-WWH1 biosensor labelled with Cy3
[3] = system: CDKACT-WWH1 biosensor labelled with Cy5
CDKACT-WWH1 biosensor labelled with Cy5, sequence (chain, as listed by the source): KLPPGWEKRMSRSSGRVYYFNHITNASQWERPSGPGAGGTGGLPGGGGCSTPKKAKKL

unlabelled GST-CDKACTH1, sequence (chain, as listed by the source): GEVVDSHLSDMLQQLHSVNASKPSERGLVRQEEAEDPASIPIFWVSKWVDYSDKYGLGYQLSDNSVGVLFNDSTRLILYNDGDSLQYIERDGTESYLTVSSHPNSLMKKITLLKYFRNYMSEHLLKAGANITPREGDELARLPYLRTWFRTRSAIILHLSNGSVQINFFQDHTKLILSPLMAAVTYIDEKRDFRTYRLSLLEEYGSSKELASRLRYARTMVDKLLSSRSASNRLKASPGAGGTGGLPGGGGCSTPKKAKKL

With “recombinant CDK1/Cyclin B (GST-CDK1/CIV Cyclin B)” the “real-time fluorescence kinase assay (Cy3 fluorescence)” value [1] was “CDK1/Cyclin B indeed phosphorylated CDKACTH1, however in the same conditions as CDK2/Cyclin A it did not induce the same response” and the “radioactive kinase assay (phosphorylation, 30 min at 30 C)” value (unlabelled GST-CDKACTH1) was “CDKACT-H1 is phosphorylated by GST-CDK2/Cyclin A and GST-CDK1-Cyclin B in a standard kinase assay”.
With “recombinant active CDK2/Cyclin A (GST-CDK2/CIV complexed with His-Cyclin A)” the “real-time fluorescence kinase assay (Cy3 fluorescence)” value [2] was “Both CDKACTH1 and CDKACTWWH1 report on CDK2/CyclinA activity, however CDKACTWWH1 yields greater changes in fluorescence enhancement”, the “real-time fluorescence kinase assay (Cy5 fluorescence)” value [3] was “CDKACTWWH1, reports on CDK2/CyclinA activity, through significant changes in fluorescence enhancement” and the “real-time fluorescence kinase assay (Cy3 fluorescence)” value [1] was “Both CDKACTH1 and CDKACTWWH1 report on CDK2/CyclinA activity”. For the same substance, the “competition in the fluorescence kinase assay (phosphorylation of CDKACTH1-Cy3)” value (histone H1) was “histone and unlabelled sensor prevented full phosphorylation of CDKACTH1”, the “competition in the fluorescence kinase assay (phosphorylation of CDKACTH1-Cy3)” value (unlabelled GST-CDKACTH1) was “histone and unlabelled sensor prevented full phosphorylation of CDKACTH1” and the “radioactive kinase assay (phosphorylation, 30 min at 30 C)” value (unlabelled GST-CDKACTH1) was “CDKACT-H1 is phosphorylated by GST-CDK2/Cyclin A and GST-CDK1-Cyclin B in a standard kinase assay”.
